{"source": "patent US20250320292A1", "binders": {"B1": {"name": "CDAB14 (scFv)", "chain": "DCGPPPDIPNARPILGRHSKFAEQSKVAYSCNNGFKQVPDKSNIVVCLENGQWSSHETFCEKSCVAPERLSFASLKKEYLNMNFFPVGTIVEYECRPGFRKQPPLPGKATCLEDLVWSPVAQFCKKKSCPNPKDLDNGHINIPTGILFGSEINFSCNPGYRLVGVSSTFCSVTGNTVDWDDEFPVCTEIHCPEPPKINNGIMRGESDSYTYSQVVTYSCDKGFILVGNASIYCTVSKSDVGQWSSPPPRCIEKSKVPTKKPTINVPSTGTPSTPQKPTTESVPNPGDQPTPQKPSTVKVSATQHVPVTKTTVRHPIRTSTDKGEPNTGGGGGSGGGGSGGGGSGGGGSQVQLLESGPGLVKPSGTLSLTCTVSGGSISSTNWWTWVRQSPGTGLEWIGHIYHSGSTDYNPSLKSRVTISIDKSKNQFSLKMTSVTAADTAVYYCACAAQYHWKGLDPWGHGTLVTVSSGGGGGSGGGGSGGGGSDIVMTQTPLSLSVTPGQPASISCMSSQSLLHSDGKTYLYWYLQKPGQPPQLLIYEVSNRFSGVPDRFSGSGSGTDFTLKISRVEAEDVGIYYCMQSIQLPITFGQGTRLEIKHHHHHH"}}, "target": "COL4A3 (immobilised as Fc-rat COL4A3 or COL4A3-His)", "test": "BLI (Octet RED96); COL4A3 immobilised (Fc-rat COL4A3 on anti-human Fc or COL4A3-His on HIS1K, not said which), test article titrated from 50 nM", "data": [{"binder": "B1", "values": [{"measurement": "Kd", "result": 23, "unit": "µM"}]}]}
